# Numbering of substitutions follows the chain as printed. In names and notes the source's numbering stands.
# B1: hucMet22Gv2.2 (antibody, V domains shown)
# VH: QVQLVQSGAEVKKPGASVKVSCKASGYTFTDYNMDWVRQAPGQRLEWIGDLNPNNGATIYNQKFKGRATLTVDMSASTAYMELSSLRSEDTAVYYCARGNYYGNYYYLMDYWGQGTSVTVSS
# VL: DIQMTQSPSSLSASVGDRVTITCRASENIYSTLAWYQQKPGKAPKLLVYAATNLADGVPSRFSGSGSGTDYTLTISSLQPEDFATYYCQHFWGTPYTFGQGTKVEIKR
# notes: also called humanized (CDR-grafted) cMET-22
# B2: hucMet27v1.2 (antibody, human IgG1, kappa, V domains shown)
# VH: EVQLVESGGGLVQPGGSLRLSCAASGFTFSSYDMSWVRQTPGKGLELVATINSNGVSIYYPDSVKGRFTISRDIAKNTLYLQMSSLRAEDTAMYYCAREEITTEMDYWGQGTSVTVSS
# VL: DIVLTQSPASLAVSPGQRATISCRASESVDSYGNSFIHWYQQKPGQPPKLLIYRASNLESGIPARFSGSGSRTDFTLTINPVEANDVATYYCQQSNEEPLTFGGGTKLELKR
# notes: also called hu247.27.16 v1.2 (resurfaced); hu247.27.16 LC1.2 / HC1.0
# B3: hucMet27Gv1.3 (antibody, human IgG1, kappa)
# light: EIVLTQSPATLSLSPGERATLSCRASESVDSYGNSFIHWYQQKPGQAPRLLIYRASNLESGIPARFSGSGSGTDFTLTISSLEPEDFAVYYCQQSNEEPLTFGQGTKVELKRTVAAPSVFIFPPSDEQLKSGTASVVCLLNNFYPREAKVQWKVDNALQSGNSQESVTEQDSKDSTYSLSSTLTLSKADYEKHKVYACEVTHQGLSSPVTKSFNRGEC
# heavy: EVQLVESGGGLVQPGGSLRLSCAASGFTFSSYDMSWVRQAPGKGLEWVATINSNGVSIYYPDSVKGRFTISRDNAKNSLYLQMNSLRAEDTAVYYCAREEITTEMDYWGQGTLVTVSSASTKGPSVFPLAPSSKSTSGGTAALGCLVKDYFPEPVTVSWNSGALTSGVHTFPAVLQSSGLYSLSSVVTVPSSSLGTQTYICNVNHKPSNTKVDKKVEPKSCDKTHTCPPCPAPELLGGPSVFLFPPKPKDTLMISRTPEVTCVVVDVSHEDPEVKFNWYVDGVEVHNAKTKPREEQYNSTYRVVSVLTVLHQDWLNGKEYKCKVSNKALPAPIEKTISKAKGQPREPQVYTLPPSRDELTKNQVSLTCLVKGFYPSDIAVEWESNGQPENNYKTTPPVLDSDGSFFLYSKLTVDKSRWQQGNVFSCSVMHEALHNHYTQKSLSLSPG
# notes: CDR-grafted cMET-27 with one S49A backmutation in VH; preferred construct
# B4: hucMet27Gv1.2 (antibody, human IgG1, kappa, V domains shown)
# VH: B2 VH with T40A, T78S, S84N, M93V, S113L
# VL: EIVLTQSPATLSLSPGERATLSCRASESVDSYGNSFIHWYQQKPGQAPRLLIYRASNLESGIPARFSGSGSGTDFTLTISSLEPEDFAVYYCQQSNEEPLTFGQGTKVELKR
# notes: CDR-grafted cMET-27 with backmutations only in the VH domain (W47L, S49A, N73I); also called v1.2 (CDR-grafted)
# B5: hucMet27Gv1.3C442 (antibody)
# light: B3 light
# heavy: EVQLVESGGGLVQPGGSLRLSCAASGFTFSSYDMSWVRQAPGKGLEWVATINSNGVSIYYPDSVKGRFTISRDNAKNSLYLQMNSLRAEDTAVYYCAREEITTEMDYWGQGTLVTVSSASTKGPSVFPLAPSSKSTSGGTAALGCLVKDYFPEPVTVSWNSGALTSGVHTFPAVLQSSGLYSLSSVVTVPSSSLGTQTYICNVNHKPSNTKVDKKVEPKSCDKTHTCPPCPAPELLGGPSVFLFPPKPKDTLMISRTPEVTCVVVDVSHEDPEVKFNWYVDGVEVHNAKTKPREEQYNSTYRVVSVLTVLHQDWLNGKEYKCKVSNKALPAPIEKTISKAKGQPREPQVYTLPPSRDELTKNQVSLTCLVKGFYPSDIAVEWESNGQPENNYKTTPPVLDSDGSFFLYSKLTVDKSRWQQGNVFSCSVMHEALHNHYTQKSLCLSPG
# notes: Cysteine-engineered (C442, Cysmab) form of hucMet27Gv1.3, tested unconjugated
# B6: hucMet27Gv1.3Hinge26C442 (antibody)
# light: B3 light
# heavy: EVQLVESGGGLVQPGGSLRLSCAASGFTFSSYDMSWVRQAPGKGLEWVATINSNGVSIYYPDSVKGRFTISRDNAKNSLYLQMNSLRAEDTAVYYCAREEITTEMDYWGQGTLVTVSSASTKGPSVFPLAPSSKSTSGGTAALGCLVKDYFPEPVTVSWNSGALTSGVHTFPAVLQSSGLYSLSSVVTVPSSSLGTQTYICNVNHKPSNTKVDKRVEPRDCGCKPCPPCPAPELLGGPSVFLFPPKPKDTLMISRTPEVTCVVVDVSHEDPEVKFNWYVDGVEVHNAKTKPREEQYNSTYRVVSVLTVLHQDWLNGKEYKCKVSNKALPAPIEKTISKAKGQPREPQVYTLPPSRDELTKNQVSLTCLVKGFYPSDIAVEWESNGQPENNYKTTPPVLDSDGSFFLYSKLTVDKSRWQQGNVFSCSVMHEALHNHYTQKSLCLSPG
# notes: Hinge#26 and C442 (Cysmab) variant of hucMet27Gv1.3
# B7: hucMet27Gv1.3Hinge28 (antibody)
# light: B3 light
# heavy: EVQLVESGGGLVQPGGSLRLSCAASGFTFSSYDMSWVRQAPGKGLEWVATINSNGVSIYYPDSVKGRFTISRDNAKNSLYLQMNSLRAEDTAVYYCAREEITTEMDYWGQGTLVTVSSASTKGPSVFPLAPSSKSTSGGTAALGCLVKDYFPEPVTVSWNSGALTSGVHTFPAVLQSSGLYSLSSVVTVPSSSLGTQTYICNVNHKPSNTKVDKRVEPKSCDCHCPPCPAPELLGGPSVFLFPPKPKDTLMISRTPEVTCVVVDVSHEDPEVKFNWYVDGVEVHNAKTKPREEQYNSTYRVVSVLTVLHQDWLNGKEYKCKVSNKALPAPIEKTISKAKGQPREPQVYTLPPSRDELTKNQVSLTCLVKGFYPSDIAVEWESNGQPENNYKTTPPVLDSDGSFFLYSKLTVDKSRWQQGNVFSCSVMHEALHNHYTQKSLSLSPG
# notes: Hinge#28 variant of hucMet27Gv1.3
# B8: hucMet27Gv1.3HingeIgG2S127C (antibody)
# light: B3 light
# heavy: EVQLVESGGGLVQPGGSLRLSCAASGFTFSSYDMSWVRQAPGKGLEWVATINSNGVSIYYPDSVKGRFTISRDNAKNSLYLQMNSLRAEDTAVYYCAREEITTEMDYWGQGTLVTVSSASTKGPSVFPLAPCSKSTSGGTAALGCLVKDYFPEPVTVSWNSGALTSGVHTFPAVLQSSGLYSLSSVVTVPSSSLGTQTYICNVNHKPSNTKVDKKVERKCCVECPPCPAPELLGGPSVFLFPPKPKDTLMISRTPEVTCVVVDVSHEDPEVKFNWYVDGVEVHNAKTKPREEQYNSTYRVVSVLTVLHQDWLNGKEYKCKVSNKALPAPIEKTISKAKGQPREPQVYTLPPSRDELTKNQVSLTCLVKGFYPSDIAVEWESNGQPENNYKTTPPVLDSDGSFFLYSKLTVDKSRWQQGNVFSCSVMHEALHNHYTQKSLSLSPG
# Molecular target: T1, Human cMet-ECD-his (human, UniProt P08581 25-932)
# T1 construct: extracellular domain; Soluble analyte in the ForteBio assay; also called hu cMet; soluble recombinant hu cMet protein; not shown: histidine-containing peptide (His tag)
# Assay: BLI (ForteBio), antibody on anti-hIgG Fc capture biosensor, soluble cMet-ECD-his 2.6-30 nM, 1:1 fit
# Experimental: (§1) Briefly, each antibody was bound and immobilized onto an anti-hIgG Fc Capture biosensor and then incubated in the presence of different concentrations (2.6-30 nM) of His-tagged soluble cMet. The kinetics of binding were determined via ForteBio analysis binding using a 1:1 binding fit model.
# T1 sequence (P08581 25-932): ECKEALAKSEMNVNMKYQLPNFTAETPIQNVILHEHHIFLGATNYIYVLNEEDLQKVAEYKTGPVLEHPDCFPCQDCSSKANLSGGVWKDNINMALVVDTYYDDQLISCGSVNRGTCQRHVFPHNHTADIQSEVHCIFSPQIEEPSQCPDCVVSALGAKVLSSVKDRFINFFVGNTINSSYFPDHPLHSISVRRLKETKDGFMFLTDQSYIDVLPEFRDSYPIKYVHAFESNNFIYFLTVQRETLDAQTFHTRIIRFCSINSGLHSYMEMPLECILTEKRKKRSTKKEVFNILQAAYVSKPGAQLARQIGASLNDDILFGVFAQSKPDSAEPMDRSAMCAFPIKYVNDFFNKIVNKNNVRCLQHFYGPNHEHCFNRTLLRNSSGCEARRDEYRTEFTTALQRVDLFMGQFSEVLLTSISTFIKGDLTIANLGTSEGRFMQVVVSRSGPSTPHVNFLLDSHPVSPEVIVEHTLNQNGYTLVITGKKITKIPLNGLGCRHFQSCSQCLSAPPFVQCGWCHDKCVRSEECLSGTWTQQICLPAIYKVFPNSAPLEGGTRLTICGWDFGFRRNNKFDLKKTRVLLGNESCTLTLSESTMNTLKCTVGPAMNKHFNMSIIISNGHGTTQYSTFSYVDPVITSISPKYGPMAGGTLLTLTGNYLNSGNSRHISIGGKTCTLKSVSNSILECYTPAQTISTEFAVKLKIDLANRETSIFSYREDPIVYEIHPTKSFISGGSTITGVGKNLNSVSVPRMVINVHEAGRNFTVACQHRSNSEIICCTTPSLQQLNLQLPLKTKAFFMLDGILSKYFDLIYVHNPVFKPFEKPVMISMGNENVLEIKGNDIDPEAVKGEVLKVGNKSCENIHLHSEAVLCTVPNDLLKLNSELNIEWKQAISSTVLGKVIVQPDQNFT
Binder,Kd [nM],koff [s⁻¹],kon [M⁻¹ s⁻¹]
B1,4.77,0.00213,445000
B2,0.989,0.000233,236000
B3,1.81,0.000478,264000
B4,0.941,0.000154,266000
B5,1.64,0.000447,272000
B6,1.9,0.000497,262000
B7,1.96,0.000451,230000
B8,1.67,0.000436,235000

# Molecular target: T2, Cyno cMet-ECD-his (cynomolgus monkey)
# T2 construct: extracellular domain; Soluble analyte in the ForteBio assay; also called cynomolgus monkey cMet
# Assay: as above
# Experimental: as §1
Binder,Kd [nM],koff [s⁻¹],kon [M⁻¹ s⁻¹]
B1,3.62,0.00128,353000
B2,0.928,0.000196,212000
B3,1.94,0.000415,214000
B4,0.614,0.000148,241000
B5,1.6,0.000439,273000
B6,1.57,0.000496,317000
B7,1.68,0.000564,336000
B8,1.47,0.00045,307000

# — patent US20180230218A1 (IMMUNOGEN, published 2018)
